The values below come from patent US20180312587A1 (ADURO BIOTECH HOLDINGS EUROPE B V, published 2018).

For one assay, the target named is T1, human SIRPα variant 1 (human, UniProt P78324 31-504).
T1 construct: full length ORF on transfected CHO-K1 or HEK293 cells; entry includes the signal peptide; also called hSIRPαV1; SIRPαV1
The assay can be described thus: CELISA, CHO-K1 transfectants; average of two experiments. On the procedure: (§1) Binding of the humanized antibodies to hSIRPα was studied in CELISA format. Binding of the hSIRPα antibodies to human SIRPαV1, SIRPαV2, hSIRPβ1, and hSIRPγ was confirmed using CHO-K1 cells that had been transiently transfected with cDNA encoding the full length open reading frame of each of these respective targets subcloned into the pCI-neo vector. CHO-K1.hSIRPαV1, CHO-K1.hSIRPαV2, CHO-K1.hSIRPβ1, and CHO-K1.hSIRPγ cells were seeded in culture medium (DMEM-F12 (Gibco) supplemented with 5% New Born Calf Serum (BioWest) and Pen/Strep (Gibco)) in 96-well flat-bottom tissue culture plates and incubated at 37° C., 5% CO₂ and 95% humidity until cell layers were confluent. Subsequently, culture medium was removed and cells were incubated for 1 hour at 37° C., 5% CO₂ and 95% humidity with purified hSIRPα antibodies (10 μg/mL and dilutions thereof). Next, cells were washed with PBS-T and incubated for 1 hour at 37° C., 5% CO₂ and 95% humidity with goat-anti-human IgG-HRP conjugate (Jackson Immuno Research) or goat-anti-mouse IgG-HRP (Southern Biotech). Subsequently, cells were washed three times with PBS-T and anti-hSIRPα immunoreactivity was visualized with TMB Stabilized Chromogen (Invitrogen). Reactions were stopped with 0.5 M H₂SO₄ and absorbances were read at 450 and 610 nm. […] In Table 13 the EC50 values of the humanized hSIRPα antibodies are depicted.
(§2) Table 13: Binding of humanized and parental hSIRPα.50A antibodies to CHO-K1.hSIRPαV1, CHO-K1.hSIRPαV2, CHO-K1.hSIRPβ1, and CHO-K1.hSIRPγ cells.

For another assay, the target named is T2, human SIRPα variant 2 (human, UniProt P78324 31-504).
T2 construct: full length ORF on transfected CHO-K1 cells; also called hSIRPαV2; SIRPαV2
The assay is described as above. On the procedure:
as §1, §2

Another assay addresses T3, hSIRP-VβC1γC2β (human, UniProt O00241 30-398).
T3 chain: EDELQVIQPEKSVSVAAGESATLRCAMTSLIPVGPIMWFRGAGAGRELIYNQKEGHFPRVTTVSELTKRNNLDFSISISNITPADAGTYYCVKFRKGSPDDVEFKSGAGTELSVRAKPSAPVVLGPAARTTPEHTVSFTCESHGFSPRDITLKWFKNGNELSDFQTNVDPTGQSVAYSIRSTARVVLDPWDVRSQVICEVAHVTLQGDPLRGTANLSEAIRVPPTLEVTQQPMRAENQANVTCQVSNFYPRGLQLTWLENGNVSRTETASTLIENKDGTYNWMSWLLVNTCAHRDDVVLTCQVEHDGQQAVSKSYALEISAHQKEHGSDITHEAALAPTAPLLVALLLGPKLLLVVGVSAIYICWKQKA
The assay can be described thus: CELISA, CHO-K1 transfectants, domain exchange study; nd = not detected. An excerpt: (§3) Based on the fold of SIRPα/β1/γ, the extracellular region can be subdivided into three separate domains: the Ig-like (immunoglobulin-like) V-type (IgV), Ig-like C1-type (IgC1), and Ig-like C2-type (IgC2) domain. The IgV domain is also known as the ligand-binding N-terminal domain of SIRPα and SIRPγ (which binds to CD47). The human SIRPβ1/γ mutants were designed based on the full length hSIRPβ1 sequence (SEQ ID NO: 38) and each individual Ig-like domain was substituted for the equivalent domain of human SIRPγ (SEQ ID NO: 40). […] Binding of hSIRPα.40A to the exchange mutants was tested using CELISA. To this end, CHO-K1 cells were transiently transfected, using Lipofectamine 2000, with the pCI-neo vectors encoding hSIRPαV1, hSIRPαV2, hSIRPβ1, hSIRP-VγC1βC2β, hSIRP-VβC1γC2β, and hSIRP-VβC1βC2γ, respectively. The transfected cells were cultured at 37° C., 5% CO₂ and 95% humidity in medium (DMEM-F12 (Gibco) with 5% New Born Calf serum (Biowest) and Pen/Strep (Gibco)) until confluent. Subsequently, cells were trypsinized and seeded in 96-well flat-bottom tissue culture plates and cultured at 37° C., 5% CO₂ and 95% humidity in culture medium until confluent. […] Reactions were stopped with 0.5 M H₂SO₄ and absorbances were read at 450 and 610 nm.

The next assay has as its target T4, hSIRP-VβC1βC2γ (human, UniProt O00241 30-398).
T4 chain: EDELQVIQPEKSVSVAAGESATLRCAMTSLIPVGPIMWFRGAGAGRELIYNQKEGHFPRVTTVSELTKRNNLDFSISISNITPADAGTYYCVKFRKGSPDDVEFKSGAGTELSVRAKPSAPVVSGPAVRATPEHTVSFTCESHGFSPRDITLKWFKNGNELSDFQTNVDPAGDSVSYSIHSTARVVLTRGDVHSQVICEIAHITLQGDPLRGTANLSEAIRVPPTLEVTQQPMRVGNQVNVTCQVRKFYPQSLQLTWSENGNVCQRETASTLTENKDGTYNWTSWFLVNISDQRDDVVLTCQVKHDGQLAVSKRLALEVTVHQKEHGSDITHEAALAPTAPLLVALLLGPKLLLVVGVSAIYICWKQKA
The assay is described as above.
Excerpt: as §3

In assay [1] the target is T5, hSIRPα expressed on primary human cells (human, UniProt P78324 31-504).
T5 construct: whole, on cells; also called hSIRPα on primary human CD14+ monocytes; on primary human granulocytes
The assay can be described thus: flow cytometry, blockade of DyLight488-hCD47/Fc binding to CD14+ enriched monocytes, donor 2. The protocol:
To assess the blocking ability of hSIRPα.50A, CD14+ enriched monocytes cells were seeded in 96-well round bottomed tissue culture plates and incubated for 45 minutes with FcR Blocking Reagent (Miltenyi Biotec) and hSIRPα.50A antibody (200 μg/mL and dilutions thereof) in PBS/1% BSA at 4° C. […] After this labeling procedure, cells were washed two times, resuspended in PBS/1% BSA containing 0.1 μg/mL DAPI (BioLegend), and analysed by flow cytometry on the FACSVerse (BD Biosciences). Data were processed and analysed with FlowJo V10 software (FlowJo, LLC). […] IC50 values represent the concentration at which half of the inhibition is observed.
On the technique in general: A flow cytometer gives signals particle by particle.

T2 sequence (P78324 other isoform, or with tags, fused parts or gaps mutant limits assumed): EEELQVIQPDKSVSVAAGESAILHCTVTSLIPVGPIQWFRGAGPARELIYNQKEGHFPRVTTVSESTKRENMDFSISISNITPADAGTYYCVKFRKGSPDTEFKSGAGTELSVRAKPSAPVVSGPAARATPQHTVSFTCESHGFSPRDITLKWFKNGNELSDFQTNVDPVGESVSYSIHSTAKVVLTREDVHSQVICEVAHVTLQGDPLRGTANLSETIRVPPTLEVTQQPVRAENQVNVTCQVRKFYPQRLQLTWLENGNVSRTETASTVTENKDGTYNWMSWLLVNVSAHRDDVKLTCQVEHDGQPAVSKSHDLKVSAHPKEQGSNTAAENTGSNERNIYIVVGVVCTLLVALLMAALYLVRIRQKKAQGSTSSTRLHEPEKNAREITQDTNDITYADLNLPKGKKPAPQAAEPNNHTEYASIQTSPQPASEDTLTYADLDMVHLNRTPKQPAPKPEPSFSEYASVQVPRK
T5 sequence (P78324 31-504): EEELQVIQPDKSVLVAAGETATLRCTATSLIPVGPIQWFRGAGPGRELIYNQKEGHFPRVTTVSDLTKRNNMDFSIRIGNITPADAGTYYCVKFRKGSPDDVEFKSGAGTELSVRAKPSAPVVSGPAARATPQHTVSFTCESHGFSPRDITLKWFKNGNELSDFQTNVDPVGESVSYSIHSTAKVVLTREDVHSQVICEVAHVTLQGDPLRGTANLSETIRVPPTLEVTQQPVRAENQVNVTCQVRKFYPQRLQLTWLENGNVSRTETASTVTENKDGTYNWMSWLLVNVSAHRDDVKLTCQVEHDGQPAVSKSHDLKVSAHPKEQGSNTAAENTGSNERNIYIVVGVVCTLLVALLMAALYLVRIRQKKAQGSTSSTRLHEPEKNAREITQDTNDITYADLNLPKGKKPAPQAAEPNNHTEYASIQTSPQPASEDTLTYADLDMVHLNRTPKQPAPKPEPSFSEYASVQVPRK
T1 sequence (P78324 31-504 limits assumed, change not shown): as the sequence (P78324 31-504) above

B1: hSIRPα.50A (antibody, V domains shown)
VH: QVQLQQSGPELVKPGASVRISCKASGFTFTNYYIHWVKQRPGQGLEWIGWIYPGNVNTKYNEKFKAKATLTADKSSTTAYMQLSSLASEDSAVYFCARPTIIATDFDVWGAGTTVTVSS
VL: DIVMTQSHKFMSTSVGDRVNITCKASQGVGTAVGWYQQKPGQSPRLLIYWASTRHTGVPDRFTGSGSGTDFSLAISNVQSEDLADYFCQQYSTYPFTFGGGTNLEIK
notes: light chain constant domain not tied; also called mouse hSIRPα.50A; hSIRPα.50A.mIgG1
As to B1, the EC50 (usually the concentration giving half of the maximal effect) was 1.36 nM with human SIRPα variant 1 and 1.3 nM with human SIRPα variant 2. The binding result with hSIRP-VβC1γC2β and with hSIRP-VβC1βC2γ was “no binding” throughout. Moreover, the IC50 (as a rule, the point on the concentration scale where inhibition reaches its midpoint) in assay [1] was 1.03 nM.
